Test results published in IntAct's records for PubMed 11359767.

B1: E3 ubiquitin-protein ligase NEDD4 (Homo sapiens), P46934 (parent)
chain: MAQSLRLHFAARRSNTYPLSETSGDDLDSHVHMCFKRPTRISTSNVVQMKLTPRQTALAPLIKENVQSQERSSVPSSENVNKKSSCLQISLQPTRYSGYLQSSNVLADSDDASFTCILKDGIYSSAVVDNELNAVNDGHLVSSPAICSGSLSNFSTSDNGSYSSNGSDFGSCASITSGGSYTNSVISDSSSYTFPPSDDTFLGGNLPSDSTSNRSVPNRNTTPCEIFSRSTSTDPFVQDDLEHGLEIMKLPVSRNTKIPLKRYSSLVIFPRSPSTTRPTSPTSLCTLLSKGSYQTSHQFIISPSEIAHNEDGTSAKGFLSTAVNGLRLSKTICTPGEVRDIRPLHRKGSLQKKIVLSNNTPRQTVCEKSSEGYSCVSVHFTQRKAATLDCETTNGDCKPEMSEIKLNSDSEYIKLMHRTSACLPSSQNVDCQININGELERPHSQMNKNHGILRRSISLGGAYPNISCLSSLKHNCSKGGPSQLLIKFASGNEGKVDNLSRDSNRDCTNELSNSCKTRDDFLGQVDVPLYPLPTENPRLERPYTFKDFVLHPRSHKSRVKGYLRLKMTYLPKTSGSEDDNAEQAEELEPGWVVLDQPDAACHLQQQQEPSPLPPGWEERQDILGRTYYVNHESRRTQWKRPTPQDNLTDAENGNIQLQAQRAFTTRRQISEETESVDNRESSENWEIIREDEATMYSNQAFPSPPPSSNLDVPTHLAEELNARLTIFGNSAVSQPASSSNHSSRRGSLQAYTFEEQPTLPVLLPTSSGLPPGWEEKQDERGRSYYVDHNSRTTTWTKPTVQATVETSQLTSSQSSAGPQSQASTSDSGQQVTQPSEIEQGFLPKGWEVRHAPNGRPFFIDHNTKTTTWEDPRLKIPAHLRGKTSLDTSNDLGPLPPGWEERTHTDGRIFYINHNIKRTQWEDPRLENVAITGPAVPYSRDYKRKYEFFRRKLKKQNDIPNKFEMKLRRATVLEDSYRRIMGVKRADFLKARLWIEFDGEKGLDYGGVAREWFFLISKEMFNPYYGLFEYSATDNYTLQINPNSGLCNEDHLSYFKFIGRVAGMAVYHGKLLDGFFIRPFYKMMLHKPITLHDMESVDSEYYNSLRWILENDPTELDLRFIIDEELFGQTHQHELKNGGSEIVVTNKNKKEYIYLVIQWRFVNRIQKQMAAFKEGFFELIPQDLIKIFDENELELLMCGLGDVDVNDWREHTKYKNGYSANHQVIQWFWKAVLMMDSEKRIRLLQFVTGTSRVPMNGFAELYGSNGPQSFTVEQWGTPEKLPRAHTCFNRLDLPPYESFEELWDKLQMAIENTQGFDGVD
partner: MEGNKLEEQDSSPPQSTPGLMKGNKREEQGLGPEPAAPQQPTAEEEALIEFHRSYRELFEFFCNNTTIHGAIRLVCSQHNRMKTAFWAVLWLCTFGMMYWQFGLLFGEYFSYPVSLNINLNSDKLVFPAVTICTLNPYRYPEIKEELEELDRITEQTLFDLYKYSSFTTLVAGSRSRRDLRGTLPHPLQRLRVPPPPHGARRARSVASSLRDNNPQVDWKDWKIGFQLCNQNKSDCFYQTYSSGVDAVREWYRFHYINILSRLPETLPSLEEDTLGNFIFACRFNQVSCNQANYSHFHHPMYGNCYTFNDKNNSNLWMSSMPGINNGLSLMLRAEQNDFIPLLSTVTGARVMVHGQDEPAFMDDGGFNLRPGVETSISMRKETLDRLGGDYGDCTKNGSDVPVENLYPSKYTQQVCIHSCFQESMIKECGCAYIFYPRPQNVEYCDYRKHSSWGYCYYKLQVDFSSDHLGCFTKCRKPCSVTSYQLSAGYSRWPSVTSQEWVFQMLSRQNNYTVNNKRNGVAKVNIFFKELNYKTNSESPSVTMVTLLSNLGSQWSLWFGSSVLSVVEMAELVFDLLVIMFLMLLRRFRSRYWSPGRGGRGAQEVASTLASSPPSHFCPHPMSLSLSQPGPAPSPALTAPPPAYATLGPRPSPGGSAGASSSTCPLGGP

Variants of: B1
Settings: with scnna_human SCNN1A

Variant | effect of a mutation on the interaction
V629W;H631G;I859W;H861G;I911W;H913G | disrupting interaction strength
I859W;H861G | disrupting interaction strength
V629W;H631G;V786W;H788G;I859W;H861G | disrupting interaction strength
V629W;H631G;V786W;H788G;I911W;H913G | with no effect
V629W;H631G | with no effect
V629W;H631G;V786W;H788G;I859W;H861G;I911W;H913G | disrupting interaction strength
I911W;H913G | with no effect
V786W;H788G;I859W;H861G;I911W;H913G | disrupting interaction strength
V786W;H788G | with no effect
